Data set [1] has as its target T1, c-Ret on NB41A3-mRL3 cells (UniProt P35546 29-1115, limits assumed). Briefly: cell-based or functional assay.
For data set [2], the target named is T1, c-Ret on NB41A3-mRL3 cells. Briefly: cell-based or functional assay. This is another data set of the same source.
Details of data set [3]: species or system mice. To be noted: mouse, in vivo. The text has this:
The pharmokinetic properties of various PEGylated and non-PEGylated mutated neublastin products in rat and mouse models were examined (see Table 8 for summary of results). The analysis of the PEGylated […] samples are complicated by the presence of adducts comprising 2, 3 and 4 PEGs per molecule, which each will display a different PK profile. In early PK studies, mice were used to facilitate screening through a variety of candidates and routes of administration. […] This difference in bioavailability was particularly pronounced following i.p. administration. Levels in mice reached 1600 ng/mL after 7 hr and remained at 400 ng/mL after 24 hr. In contrast, rat levels were constant at 100 ng/mL for 4-48 hr. Two surprising and unexpected results emerged from the PK studies summarized in Table 8: 1) PEGylation of the amino-terminal amino acids of non-glycosylated neublastin was not sufficient to increase serum exposure substantially, and 2) PEGylation of the amino-terminal amino acid(s) of neublastin together with modification (e.g. PEGylation or glycosylation) of amino acid 95 was sufficient to increase serum exposure substantially.

Data set [4] is described as follows: Pharmacokinetic studies in rats (circulating levels after IV, s.c. or i.p. administration). The class given is in vivo, Sprague Dawley rats. The protocol: The proteins were below the threshold of detection in the serum following subcutaneous administration. To increase bioavailability of neublastin, PEGylated forms of mutated neublastin were constructed.
The pharmokinetic properties of various PEGylated and non-PEGylated mutated neublastin products in rat and mouse models were examined (see Table 8 for summary of results).
Following a 1 mg/kg IV administration in Sprague Dawley rats, peak levels of PEGylated mutated neublastin of 3000 ng/mL were detected after 7 minutes, and levels of 700 ng/mL were detected after 24 h, 200 ng/mL after 48 h, and 100 ng/mL after 72 h. In contrast for non-PEGylated mutated neublastin N95K following a 1 mg/kg IV administration, levels of 1500 ng/mL were detected after 7 minutes, but then the levels quickly dropped to 70 ng/mL after 3 h and were not detectable after 7 h. The effects of PEGylation were even more pronounced in animals treated with PEGylated neublastin by subcutaneous administration.
Following a 1 mg/kg s.c. administration, circulating levels of PEGylated neublastin reached a maximum of 200 ng/mL after 24 h and remained at this level for the duration of the three day study.
The analysis of the PEGylated N95K samples are complicated by the presence of adducts comprising 2, 3 and 4 PEGs per molecule, which each will display a different PK profile. In early PK studies, mice were used to facilitate screening through a variety of candidates and routes of administration. […] This difference in bioavailability was particularly pronounced following i.p. administration. Levels in mice reached 1600 ng/mL after 7 hr and remained at 400 ng/mL after 24 hr. In contrast, rat levels were constant at 100 ng/mL for 4-48 hr.

The target in a further data set is T2, c-Ret (Mus musculus, UniProt O35118+P35546).
T2 construct: NB41A3-mRL3 cells, an adherent murine neuroblastoma cell line which expresses Ret and GFRα3; endogenous in cells; host or cells: NB41A3-mRL3 (murine neuroblastoma)
T2 sequence (P35546 29-1115): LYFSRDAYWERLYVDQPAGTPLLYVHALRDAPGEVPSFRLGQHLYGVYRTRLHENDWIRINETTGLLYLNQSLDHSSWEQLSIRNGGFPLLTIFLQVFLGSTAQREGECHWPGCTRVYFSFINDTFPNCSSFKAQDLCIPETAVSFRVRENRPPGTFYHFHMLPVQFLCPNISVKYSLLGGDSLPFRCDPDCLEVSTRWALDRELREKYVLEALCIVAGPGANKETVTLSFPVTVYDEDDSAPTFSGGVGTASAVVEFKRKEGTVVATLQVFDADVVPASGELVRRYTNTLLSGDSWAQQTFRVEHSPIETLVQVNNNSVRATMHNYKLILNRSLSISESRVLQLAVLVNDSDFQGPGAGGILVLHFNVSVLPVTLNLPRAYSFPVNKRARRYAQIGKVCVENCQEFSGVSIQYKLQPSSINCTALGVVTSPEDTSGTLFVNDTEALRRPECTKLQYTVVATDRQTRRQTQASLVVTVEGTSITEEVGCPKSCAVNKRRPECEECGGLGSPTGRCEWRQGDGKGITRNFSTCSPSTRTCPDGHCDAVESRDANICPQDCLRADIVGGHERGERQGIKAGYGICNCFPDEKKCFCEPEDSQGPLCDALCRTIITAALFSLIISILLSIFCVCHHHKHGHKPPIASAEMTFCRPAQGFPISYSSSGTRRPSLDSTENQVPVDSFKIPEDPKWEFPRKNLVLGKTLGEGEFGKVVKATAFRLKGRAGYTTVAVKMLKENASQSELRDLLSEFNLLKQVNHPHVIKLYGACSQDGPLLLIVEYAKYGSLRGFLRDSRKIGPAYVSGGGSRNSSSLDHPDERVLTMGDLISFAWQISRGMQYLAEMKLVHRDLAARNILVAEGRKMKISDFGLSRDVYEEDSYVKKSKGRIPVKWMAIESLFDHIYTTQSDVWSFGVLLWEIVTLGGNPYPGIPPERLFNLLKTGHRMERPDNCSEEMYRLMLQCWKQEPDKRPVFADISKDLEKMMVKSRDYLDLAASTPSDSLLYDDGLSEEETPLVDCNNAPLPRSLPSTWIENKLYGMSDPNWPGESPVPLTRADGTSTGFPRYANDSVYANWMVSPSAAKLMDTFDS
T2 sequence (O35118 29-397): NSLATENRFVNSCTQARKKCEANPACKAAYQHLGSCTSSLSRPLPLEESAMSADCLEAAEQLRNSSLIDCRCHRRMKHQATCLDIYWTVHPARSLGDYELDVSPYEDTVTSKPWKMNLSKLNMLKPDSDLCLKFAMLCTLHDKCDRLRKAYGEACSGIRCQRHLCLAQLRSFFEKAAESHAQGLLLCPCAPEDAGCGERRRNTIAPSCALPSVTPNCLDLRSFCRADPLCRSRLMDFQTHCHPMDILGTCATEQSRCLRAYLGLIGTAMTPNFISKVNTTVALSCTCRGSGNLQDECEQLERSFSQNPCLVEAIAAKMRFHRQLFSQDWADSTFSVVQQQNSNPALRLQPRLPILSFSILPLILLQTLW
Briefly: Kinase Receptor Activation (KIRA) ELISA: neublastin dependent phosphorylation of c-Ret in NB41A3-mRL3 cells. The format is cell-based, murine. The protocol:
The potency of PEGylated mutated rat neublastin was measured using neublastin dependent activation/ phosphorylation of c-Ret as a reporter for neublastin activity in an ELISA that was specific for the presence of phosphorylated RET. NB41A3-mRL3 cells, an adherent murine neuroblastoma cell line which expresses Ret and GFRα3, were plated at 2 x 10^5 cells per well in 24-well plates in Dulbecco's modified eagle medium (DMEM), supplemented with 10 % fetal bovine serum, and cultured for 18 h at 37 °C and 5 % CO2.
The cells were washed with PBS, and treated with serial dilutions of neublastin in 0.25 mL of DMEM for 10 min at 37°C and 5 % CO2. Each sample was analyzed in duplicate. The cells were washed with 1 mL of PBS, and lysed for 1h at 4 °C with 0.30 mL of 10 mM Tris HC1, pH 8.0, 0.5 % Nonidet P40, 0.2 % sodium deoxycholate, 50 mM NaF, 0.1 mM Na3 VO4,1 mM phenylmethylsulfonyl fluoride with gently rocking the plates. The lysates were further agitated by repeated pipetting and 0.25 mL of sample was transferred to a 96-well ELISA plate that had been coated with 5 µg/mL of anti-Ret mAb (AA.GE7.3) in 50 mM carbonate buffer, pH 9.6 at 4°C for 18 h, and blocked at room temperature for one hour with block buffer (20 mM Tris HC1 pH 7.5, 150 mM NaCl, 0.1% Tween-20 (TBST) containing 1 % normal mouse serum and 3 % bovine serum albumin).
After a 2 h incubation at room temperature, the wells were washed 6-times with TBST. Phosphorylated Ret was detected by incubating the wells at room temperature for 2 h with 2 µg/mL of horseradish peroxidase (HRP)-conjugated anti-phosphotyrosine 4G10 antibody in block buffer, washing 6-times with TBST, and measuring HRP activity at 450 nm with a colorometric detection reagent. The absorbance values from wells treated with lysate or with lysis buffer were measured and the background corrected signal was plotted as a function of the concentration of neublastin present in the activation mixture.
Neublastin activity was determined by its ability to stimulate c-Ret phosphorylation in NB41A3-mRL3 cells using the KIRA ELISA described in Example 3. Phosphorylated Ret was detected by incubating (2 hours) the captured receptor with HRP-conjugated phosphotyrosine antibody (4G10; 0.2 µg per well). Following the incubation, the wells were washed six times with TBST, and the HRP activity detected at 450 nm with a colorimetric assay. The absorbance values from wells treated with lysate or with lysis buffer alone were measured, background corrected, and the data plotted as a function of the concentration of neublastin present in the activation mixture.
(In general: ELISA stands for enzyme-linked immunosorbent assay.)

For data set [5], the system named is Chung L5/L6 spinal nerve ligation ("SNL") model. The data set is described as follows: Reversal of tactile allodynia and thermal hyperalgesia in the spinal nerve ligation model (Von Frey and Hargreave's tests). The class given is in vivo, Sprague-Dawley male rats. The protocol: Here, we describe studies to address the reversal effect ofpegylated N95K neublastin on tactile allodynia and thermal hyperalgesia in the Chung L5/L6 spinal nerve ligation ("SNL") model. Sprague-Dawley male rats (230 - 380g) were divided into two groups. All rats received the spinal nerve ligation. One group of rats (n=6) was administered vehicle by subcutaneous injection. A second group of rats (n=6 per group) were administered pegylated N95K neublastin (3,(4) X 10 kDa PEG NBN106-N95K) by subcutaneous injection at 10 µg/kg. 3(,4) X 10 kDa PEG NBN106-N95K, comprised neublastin protein that was E. coli-derived and contained an Asn-to-Lys amino acid substitution at position 95, then truncated (amino-terminus truncation of 7 amino acids; NBN106), and finally pegylated with an average of 3.3 PEG moieties per dimer ofNBN, using methoxylpoly(ethylene glycol)-succinimidyl propionate (SPA-PEG) with a molecular mass of 10,000 Da as the reactant. The vehicle consisted of 5 mM phosphate and 150 mM sodium chloride at pH 6.5. Subcutaneous injections were administered on days 3, 5, 7, 10, 12 and 14 following the operation (post-SNL). The Von Frey (Chaplan et al. (1994), J. Neurosci. Meth. 53: 55-63) and Hargreave's (Hargreaves et al. (1988), Pain. 32: 77-88) behavioral tests were used to monitor tactile and thermal responses, respectively. These pain responses were monitored prior to the spinal nerve ligation to establish baseline responses, on day 2 post-SNL to verify the presence of tactile and thermal hyperalgesia, and then on days 3, 5, 7, 10, 12, 14 and 15 post-SNL. To assess statistical significance of drug treatment relative to vehicle treatment, a 1-way analysis of variance (1-way ANOVA) was carried out followed by a post-hoc Student Neuman Keuls (SNK) test.

T1 sequence (P35546 29-1115 limits assumed): as the sequence (P35546 29-1115) above

B1: 3(,4) X 10 kDa PEG NBN106-N95K (ligand)
chain: ARATDARGCRLRSQLVPVSALGLGHSSDELIRFRFCSGSCRRARSPHDLSLASLLGAGALRSPPGSRPISQPCCRPTRYEAVSFMDVKSTWRTVDHLSATACGCLG
modifications: average of 3.3 10 kDa PEG (SPA-PEG) per dimer: on both amino-terminal amino acids and on one or both Lys95 (PEGylated amino acids 1,1,95 (,95))
Regarding B1, in data set [1], the “KIRA: ∼EC50” value is approximately 1.6 nM and the “KIRA: ∼Max Efficacy vs WT” value is approximately 90%. In addition, in data set [2], the “specific activity in the KIRA ELISA” value worked out at 10 nM.

B2: rat mutated neublastin NBN106-N95K (non-PEGylated) (ligand)
chain: B1 chain
Regarding B2, the “specific activity in the KIRA ELISA” value in data set [2] was approximately 10 nM.

B3: 4 X 10 kDa PEG NBN106-N95K (ligand)
chain: B1 chain
modifications: 10 kDa PEG on the amino-terminal amino acid and on Lys95 of each chain (PEGylated amino acids 1,1,95,95)
B3: in data set [1], the “KIRA: ∼EC50” value is approximately 11 nM and the “KIRA: ∼Max Efficacy vs WT” value is more than 80%. Moreover, the “KIRA ELISA (potency in activating Ret, fold less than wild-type NBN113)” value in data set [2] is approximately 10 fold.

B4: 3 (,4) X 10 kDa PEG NBN106-N95K: mixed population of NBN106-N95K homodimers conjugated to three or four 10 kDa PEG moieties, average 3.3 PEG per dimer (conjugate)
chain: B1 chain
In the case of B4, in data set [3] (ip), the “levels in mice after 7 hr” value is recorded as 1600 ng/mL and the “levels in mice after 24 hr” value was 400 ng/mL. Besides, in data set [3] (sc), the “Exposure in Mice After s.c. Administration” value is recorded as “++”. The “levels after 7 minutes” value in data set [4] (1 mg/kg IV, Sprague Dawley rats, 7 minutes) was determined as 3000 ng/mL. Moreover, in data set [4] (1 mg/kg IV, Sprague Dawley rats, 24 h), the “levels after 24 h” value worked out at 700 ng/mL. Moreover, in data set [4] (1 mg/kg IV, Sprague Dawley rats, 48 h), the “levels after 48 h” value is given as 200 ng/mL. In data set [4] (1 mg/kg s.c., maximum after 24 h, remained at this level for the three day study), this molecule showed a maximum circulating levels of 200 ng/mL. Further, the “activity / potency in the KIRA ELISA (in words)” value in the data set with c-Ret (compared with wild-type NBN113 / mature form) is listed as “indistinguishable from that of the wild-type NBN113 material”. Moreover, in the data set with c-Ret (potency in KIRA ELISA after two freeze-thaw cycles), the “effect of two freeze-thaw cycles on potency” value is on record as “no effect”. The “normalization of pain behaviors (tactile and thermal hyperalgesia)” value in data set [5] (3 µg/kg s.c. on days 3, 5, 7, 10, 12 and 14, data not shown, onset somewhat slower) is given as “significant normalization”. Besides, the “reversal of both types of neuropathic pain (tactile allodynia and thermal hyperalgesia)” value in data set [5] (10 µg/kg s.c. on days 3, 5, 7, 10, 12 and 14 post-SNL, rats) is “substantial and statistically significant reversal”. In data set [5] (10 µg/kg s.c., rats), the “time after initiation of administration at which effect on thermal sensitivity and tactile allodynia first became statistically significant” value came out at 4 days; the “time after initiation of administration at which effect on thermal sensitivity and tactile allodynia reached a plateau” value is “approximately 4 days”.

B5: wild-type rat neublastin (NBN113), E. coli derived (ligand)
chain: AGTRSSRARATDARGCRLRSQLVPVSALGLGHSSDELIRFRFCSGSCRRARSPHDLSLASLLGAGALRSPPGSRPISQPCCRPTRYEAVSFMDVNSTWRTVDHLSATACGCLG
For B5, the “KIRA: ∼Max Efficacy vs WT” value in data set [1] is approximately 100%. Moreover, in data set [2], the “IC50 in the KIRA ELISA” value lay in the range of 3 to 6 nM and the “specific activity in the KIRA ELISA” value was approximately 10 nM.
